The results in this text go back to publication PMC9352680, “A comprehensive thermodynamic model for RNA binding by the Saccharomyces cerevisiae Pumilio protein PUF4”.

The series has as its target T1, PUF4 RNA-binding domain (Saccharomyces cerevisiae, UniProt P25339 537-888).
T1 sequence: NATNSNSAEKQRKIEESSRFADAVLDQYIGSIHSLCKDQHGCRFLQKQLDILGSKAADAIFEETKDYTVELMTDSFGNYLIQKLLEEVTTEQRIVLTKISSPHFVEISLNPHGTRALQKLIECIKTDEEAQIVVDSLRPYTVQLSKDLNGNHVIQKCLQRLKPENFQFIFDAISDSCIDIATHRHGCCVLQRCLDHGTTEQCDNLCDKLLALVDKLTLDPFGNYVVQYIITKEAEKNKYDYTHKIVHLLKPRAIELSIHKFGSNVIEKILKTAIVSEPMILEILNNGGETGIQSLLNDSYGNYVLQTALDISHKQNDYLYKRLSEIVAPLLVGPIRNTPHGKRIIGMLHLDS
Briefly: Mg; RNA-MaP; 20 mM Na-HEPES pH 7.4, 30 mM KOAc, 0.75 mM MgCl2, 0.1% Tween-20, 5% glycerol, 0.1 mg/mL BSA, 2 mM DTT; 25 C; 0.0125-409.6 nM protein. The following applies: tags: N-His6-TEV cleaved; C-SNAP kept, Cy3B-labelled; label: tethered on chip by stalled RNA polymerase.

Molecule UCUCUUUGUAAAAGUCUCUU (ssRNA) [Ic_S1_P3E.1_K3.1_C3.1_H3.1_A3.1_[T5A]_F3.1_[T7A]_[A8G]_T3.1] registered a Kd of 822 nM.
For the molecule UCUCUUUGUAAACCUCUCUU (ssRNA) [Ic_S1_P3E.1_K3.1_C3.1_H3.1_A3.1_[T5A]_F3.1_[T7C]_[A8C]_T3.1], binding was put at a Kd of 568 nM.
In turn, UCUCUUUGUAACUUUCUCUU (ssRNA) [Ic_S1_P3E.1_K3.1_C3.1_H3.1_A3.1_[T5A]_[A6C]_F3.1_[A8T]_T3.1] gave a Kd of 57.1 nM.
In turn, UCUCUUUGUAAUCGUCUCUU (ssRNA) [Ic_S1_P3E.1_K3.1_C3.1_H3.1_A3.1_[T5A]_[A6T]_F3.1_[T7C]_[A8G]_T3.1] came in with an equilibrium dissociation constant (Kd) of 867 nM.
Regarding UCUCUUUGUAACUGUCUCUU (ssRNA) [Ic_S1_P3E.1_K3.1_C3.1_H3.1_A3.1_[T5A]_[A6C]_F3.1_[A8G]_T3.1], the Kd came to 389 nM.
The figure for UCUCUUUGUAAAGCUCUCUU (ssRNA) [Ic_S1_P3E.1_K3.1_C3.1_H3.1_A3.1_[T5A]_F3.1_[T7G]_[A8C]_T3.1] is 1000 nM; for UCUCUUUGUAACAUUCUCUU (ssRNA) [Ic_S1_P3E.1_K3.1_C3.1_H3.1_A3.1_[T5A]_[A6C]_F3.1_[T7A]_[A8T]_T3.1] it is 15 nM.
The molecule UCUCUUUGUAACUCUCUCUU (ssRNA) [Ic_S1_P3E.1_K3.1_C3.1_H3.1_A3.1_[T5A]_[A6C]_F3.1_[A8C]_T3.1] displayed a dissociation constant (Kd) of 373 nM.
In the case of UCUCUUUGUAAUGGUCUCUU (ssRNA) [Ic_S1_P3E.1_K3.1_C3.1_H3.1_A3.1_[T5A]_[A6T]_F3.1_[T7G]_[A8G]_T3.1], the Kd was found to be 2030 nM.
Molecule UCUCUUUGUAAUCUUCUCUU (ssRNA) [Ic_S1_P3E.1_K3.1_C3.1_H3.1_A3.1_[T5A]_[A6T]_F3.1_[T7C]_[A8T]_T3.1] had a Kd of 70.2 nM.
The figure for UCUCUUUGUAAUAAUCUCUU (ssRNA) [Ic_S1_P3E.1_K3.1_C3.1_H3.1_A3.1_[T5A]_[A6T]_F3.1_[T7A]_T3.1] is 146 nM.
Molecule UCUCUUUGUAAUGUUCUCUU (ssRNA) [Ic_S1_P3E.1_K3.1_C3.1_H3.1_A3.1_[T5A]_[A6T]_F3.1_[T7G]_[A8T]_T3.1] returned a Kd of 329 nM.
UCUCUUUGUAAUCCUCUCUU (ssRNA) [Ic_S1_P3E.1_K3.1_C3.1_H3.1_A3.1_[T5A]_[A6T]_F3.1_[T7C]_[A8C]_T3.1] displayed a Kd of 812 nM.
UCUCUUUGUAAUACUCUCUU (ssRNA) [Ic_S1_P3E.1_K3.1_C3.1_H3.1_A3.1_[T5A]_[A6T]_F3.1_[T7A]_[A8C]_T3.1] displayed a Kd of 560 nM.
Take UCUCUUUGUAAUUCUCUCUU (ssRNA) [Ic_S1_P3E.1_K3.1_C3.1_H3.1_A3.1_[T5A]_[A6T]_F3.1_[A8C]_T3.1]: the Kd came out at 477 nM.
For UCUCUUUGUAAUCAUCUCUU (ssRNA) [Ic_S1_P3E.1_K3.1_C3.1_H3.1_A3.1_[T5A]_[A6T]_F3.1_[T7C]_T3.1], the Kd is 758 nM.
Regarding UCUCUUUGUAAUAGUCUCUU (ssRNA) [Ic_S1_P3E.1_K3.1_C3.1_H3.1_A3.1_[T5A]_[A6T]_F3.1_[T7A]_[A8G]_T3.1], the Kd came out at 645 nM.
Take UCUCUUUGUAAACUUCUCUU (ssRNA) [Ic_S1_P3E.1_K3.1_C3.1_H3.1_A3.1_[T5A]_F3.1_[T7C]_[A8T]_T3.1]: the Kd came out at 24 nM.
On to UCUCUUUGUAAAGUUCUCUU (ssRNA) [Ic_S1_P3E.1_K3.1_C3.1_H3.1_A3.1_[T5A]_F3.1_[T7G]_[A8T]_T3.1], for which the Kd came out at 135 nM.
In the case of UCUCUUUGUAAUUUUCUCUU (ssRNA) [Ic_S1_P3E.1_K3.1_C3.1_H3.1_A3.1_[T5A]_[A6T]_F3.1_[A8T]_T3.1], the Kd was determined as 34 nM.

B1: Ia_S4_P5E.1_K5.1_C5.1_H5.1_A5.1_[T6C]_F5.1_T5.1 (ssRNA)
RNA: UUUGACAACUGAUCGUUCUUUCUUGUAUCAUUAUUCUUUCUCGAUCAGUUGUCUUU
Molecule B1 came in with a Kd of 2.73 nM.

B2: Ia_S4_P5E.1_K5.1_C5.1_H5.1_A5.1_[T6A]_F5.1_T5.1 (ssRNA)
RNA: UUUGACAACUGAUCGUUCUUUCUUGUAUAAUUAUUCUUUCUCGAUCAGUUGUCUUU
Regarding B2, the Kd amounted to 4.42 nM.
As to UCUCUUUGUAACAAUCUCUU (ssRNA) [Ic_S1_P3E.1_K3.1_C3.1_H3.1_A3.1_[T5A]_[A6C]_F3.1_[T7A]_T3.1], the affinity, expressed as Kd, was 99.3 nM.
The value for UCUCUUUGUAAUUGUCUCUU (ssRNA) [Ic_S1_P3E.1_K3.1_C3.1_H3.1_A3.1_[T5A]_[A6T]_F3.1_[A8G]_T3.1] was 352 nM; that for UCUCUUUGUACAUAUCUCUU (ssRNA) [Ic_S1_P3E.1_K3.1_C3.1_H3.1_A3.1_[T5C]_F3.1_T3.1] was 5.88 nM.

By Kd is commonly meant a measure of binding affinity in units of concentration. Read a high Kd as lower affinity.
